Results from patent US7090848.

Assays:
Test in all cases: cell-based or functional assay
[1] = target: CCR5 (UniProt P51681)
[2] = target: CCR4 (UniProt P51679)
[3] = target: CCR3 (UniProt P51677)
[4] = target: CCR1 (UniProt P32246)
[5] = target: CXCR4 (UniProt P61073)
Sequence of UniProt P61073 (P61073 whole entry): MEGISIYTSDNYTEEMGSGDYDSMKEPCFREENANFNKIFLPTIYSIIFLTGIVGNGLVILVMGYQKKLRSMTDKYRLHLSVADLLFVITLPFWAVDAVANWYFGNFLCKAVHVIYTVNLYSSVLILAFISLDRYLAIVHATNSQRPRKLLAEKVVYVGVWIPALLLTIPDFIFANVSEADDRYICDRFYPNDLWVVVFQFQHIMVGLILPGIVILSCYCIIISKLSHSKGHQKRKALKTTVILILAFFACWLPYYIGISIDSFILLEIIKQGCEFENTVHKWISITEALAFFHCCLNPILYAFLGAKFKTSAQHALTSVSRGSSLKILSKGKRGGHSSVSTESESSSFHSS

Sequence of UniProt P51681 (P51681 whole entry): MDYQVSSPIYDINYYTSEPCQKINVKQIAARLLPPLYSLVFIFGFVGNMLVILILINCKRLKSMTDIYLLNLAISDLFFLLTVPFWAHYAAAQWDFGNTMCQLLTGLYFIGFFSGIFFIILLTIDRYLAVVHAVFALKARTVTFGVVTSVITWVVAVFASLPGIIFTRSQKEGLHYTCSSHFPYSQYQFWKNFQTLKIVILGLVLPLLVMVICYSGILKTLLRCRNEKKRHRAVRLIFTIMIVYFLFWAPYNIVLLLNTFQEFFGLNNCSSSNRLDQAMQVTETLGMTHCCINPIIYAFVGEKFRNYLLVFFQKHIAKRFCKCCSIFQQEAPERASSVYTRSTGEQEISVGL
Sequence of UniProt P51677 (P51677 whole entry): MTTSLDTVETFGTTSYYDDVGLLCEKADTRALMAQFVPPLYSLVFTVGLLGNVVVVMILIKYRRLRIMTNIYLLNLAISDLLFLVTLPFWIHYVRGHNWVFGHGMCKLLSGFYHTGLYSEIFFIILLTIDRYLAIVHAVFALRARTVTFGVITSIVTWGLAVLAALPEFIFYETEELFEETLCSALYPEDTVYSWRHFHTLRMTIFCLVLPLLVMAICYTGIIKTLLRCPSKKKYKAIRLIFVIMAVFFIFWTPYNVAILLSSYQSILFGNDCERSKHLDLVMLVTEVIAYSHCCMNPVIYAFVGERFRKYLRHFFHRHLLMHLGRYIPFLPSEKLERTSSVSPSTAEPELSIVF
Sequence of UniProt P51679 (P51679 whole entry): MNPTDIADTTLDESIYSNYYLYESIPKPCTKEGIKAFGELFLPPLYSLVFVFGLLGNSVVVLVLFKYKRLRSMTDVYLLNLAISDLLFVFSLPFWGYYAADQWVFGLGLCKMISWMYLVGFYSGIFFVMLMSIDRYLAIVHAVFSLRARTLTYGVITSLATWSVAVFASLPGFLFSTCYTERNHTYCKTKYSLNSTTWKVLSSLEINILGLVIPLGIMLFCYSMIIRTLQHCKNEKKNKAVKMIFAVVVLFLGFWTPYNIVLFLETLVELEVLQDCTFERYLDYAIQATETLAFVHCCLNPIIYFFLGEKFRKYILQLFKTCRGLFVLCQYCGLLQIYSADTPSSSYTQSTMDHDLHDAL
Sequence of UniProt P32246 (P32246 whole entry): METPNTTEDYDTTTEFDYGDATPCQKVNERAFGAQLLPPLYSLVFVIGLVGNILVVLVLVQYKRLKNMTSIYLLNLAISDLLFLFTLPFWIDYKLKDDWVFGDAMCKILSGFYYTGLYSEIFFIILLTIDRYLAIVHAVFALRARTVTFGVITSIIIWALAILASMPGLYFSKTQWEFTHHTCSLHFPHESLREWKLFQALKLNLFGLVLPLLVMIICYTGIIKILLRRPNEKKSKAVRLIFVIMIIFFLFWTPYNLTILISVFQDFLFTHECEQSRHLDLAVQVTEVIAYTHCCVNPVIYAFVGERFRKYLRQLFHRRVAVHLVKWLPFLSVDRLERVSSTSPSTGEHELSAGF

Row | Substance | Infectivity Titer In HOS-CD4 Cells Expressing CCR5 [1] | Infectivity Titer In HOS-CD4 Cells Expressing CCR4 [2] | Infectivity Titer In HOS-CD4 Cells Expressing CCR3 [3] | Infectivity Titer In HOS-CD4 Cells Expressing CCR1 [4] | Infectivity Titer In HOS-CD4 Cells Expressing CXCR4 [5]
1 | HIV-1 AD8 envelope | 256 titer (1:x) | < 4 titer (1:x) | < 4 titer (1:x) | < 4 titer (1:x) | < 4 titer (1:x)
2 | HIV-1 NL4-3 envelope | 32 titer (1:x) | < 4 titer (1:x) | < 4 titer (1:x) | < 4 titer (1:x) | > 256 titer (1:x)
